Measured values taken from US20240309116A1 (ZHEJIANG SHIMAI PHARMACEUTICAL, published 2024).

Assays:
[1] = molecular target: T1, recombinant human ROR1 (full-length extracellular domain) (human, UniProt Q01973 30-406); assay: ELISA, ROR1 coated on the plate, Fab detected with HRP anti-FLAG antibody
T1 construct: extracellular domain; Bought protein; also called human ROR1 protein; full extracellular domain
Method: The hexahistidine-tagged Fabs 2H3 and 3A3 were expressed in E. coli strain HB2151 and purified from the soluble fraction of periplasm by using the Ni-NTA resin. Then ELISA was performed by using standard protocols to measure binding affinity to recombinant human ROR1 (full-length extracellular domain). Briefly, the recombinant human ROR1 (ACROBiosystems) was coated on Corning EIA/RIA high-binding 96-well plates (Corning Inc.) at 50 ng per well overnight at 4° C. and blocked with 3% nonfat milk in PBS (pH7.4). Fivefold serially diluted antibodies were added and incubated at room temperature for 2 h. The plates were washed with PBS containing 0.05% Tween 20. Bound antibodies were detected by HRP-conjugated anti-FLAG tag antibody (Sino Biological). The assay was developed at room temperature with TMB substrate (Solarbio) and OD value was measured at 450 nm with a microplate reader.

[2] = molecular target: T1, recombinant human ROR1 (full-length …); assay: ELISA, antigen coated on the plate, biotinylated antibody detected with HRP streptavidin
Method: (§1) ELISA was performed according to standard protocols, to determine binding affinity of anti-ROR1 mAB 2H3 and 3A3 to full extracellular domain and individual extracellular Ig-like domain, frizzled domain, and kringle domain of human ROR1. Briefly, recombinant human ROR1 (AcroBiosystems) were coated on Corning EIA/RIA high-binding 96-well plates (Corning Inc.) at 50 ng per well overnight at 4° C. and blocked with 3% nonfat milk in PBS (pH7.4). Fivefold serially diluted biotinylated antibodies were added and incubated at room temperature for 2 h. The plates were washed with PBS containing 0.05% Tween 20. Bound antibodies were detected by HRP-conjugated streptavidin (Sino Biological). The assay was developed at room temperature with TMB substrate (Solarbio) and monitored at 450 nm with a microplate reader. The half-maximal binding (EC₅₀) was calculated by fitting the data to the Langmuir adsorption isotherm.

[3] = molecular target: T2, human/Cynomolgus/Rhesus macaque ROR1 (308-395, Kringle domain) protein (human/Cynomolgus/Rhesus macaque, UniProt Q01973 308-395); assay: as above
T2 construct: range 308-395; Bought protein; also called kringle domain of ROR1
Method: as §1

[4] = molecular target: T3, human ROR1 (39-151, Ig-like domain) protein (human, UniProt Q01973 39-151); assay: as above
T3 construct: range 39-151; Bought protein; also called Ig-like domain of ROR1
Method: as §1

T1 sequence (Q01973 30-406): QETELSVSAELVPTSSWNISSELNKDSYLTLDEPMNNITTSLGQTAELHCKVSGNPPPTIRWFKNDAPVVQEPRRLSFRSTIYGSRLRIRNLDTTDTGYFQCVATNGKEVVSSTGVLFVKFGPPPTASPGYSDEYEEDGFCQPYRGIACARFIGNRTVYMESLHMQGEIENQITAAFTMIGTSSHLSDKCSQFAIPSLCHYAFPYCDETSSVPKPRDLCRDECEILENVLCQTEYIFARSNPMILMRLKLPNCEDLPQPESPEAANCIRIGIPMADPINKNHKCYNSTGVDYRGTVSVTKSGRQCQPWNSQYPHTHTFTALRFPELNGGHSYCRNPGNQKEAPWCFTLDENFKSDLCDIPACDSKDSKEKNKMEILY
T2 sequence (Q01973 308-395 limits assumed, form in doubt): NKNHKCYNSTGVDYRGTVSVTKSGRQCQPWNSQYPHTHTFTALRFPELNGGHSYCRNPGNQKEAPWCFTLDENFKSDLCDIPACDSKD
T3 sequence (Q01973 39-151 limits assumed, form in doubt): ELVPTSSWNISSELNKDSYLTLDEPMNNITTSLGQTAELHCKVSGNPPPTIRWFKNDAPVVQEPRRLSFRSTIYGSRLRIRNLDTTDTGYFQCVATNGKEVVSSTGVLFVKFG

| Binder | EC50 [1] [nM] | EC50 [2] [nM] | EC50 [3] [nM] | EC50 [4] [nM] |
| --- | --- | --- | --- | --- |
| anti-ROR1 2H3 Fab (Fab, V domains shown, Human Fab from a phage library, kappa light chain, hexahistidine-tagged, expressed in E. coli HB2151; also called Fab clone 2H3) VH: QVQLVQSGAEVKKTGSSVKVSCKASGYTFTYRYLHWVRQAPGQALEWMGWITPFNGNTNYAQKFQDRVTITRDRSMSTAYMELSSLRSEDTAMYYCARSGPRGDYVLDYWGQGTLVTVSS VL: EIVLTQSPATLSLSPGERATLSCRASQSVSSYLAWYQQKPGQAPRLLIYDASNRATGIPARFSGSGSGTDFTLTISSLEPEDFAVYYCQQRSNWPLTFGGGTKVEIK | ~16 | – | – | – |
| anti-ROR1 monoclonal antibody 2H3 (antibody, V domains shown, Intact human IgG1 kappa (Fd of the Fab fused to human IgG1 Fc), about 150 kDa non-reduced; also called 2H3 mAb; 2H3 Mab) VH: QVQLVQSGAEVKKTGSSVKVSCKASGYTFTYRYLHWVRQAPGQALEWMGWITPFNGNTNYAQKFQDRVTITRDRSMSTAYMELSSLRSEDTAMYYCARSGPRGDYVLDYWGQGTLVTVSS VL: EIVLTQSPATLSLSPGERATLSCRASQSVSSYLAWYQQKPGQAPRLLIYDASNRATGIPARFSGSGSGTDFTLTISSLEPEDFAVYYCQQRSNWPLTFGGGTKVEIKR | – | 0.2 | 1.2 | – |
| anti-ROR1 3A3 Fab (Fab, V domains shown, Human Fab from a phage library, kappa light chain, hexahistidine-tagged, expressed in E. coli HB2151; detected with an anti-FLAG antibody; also called Fab clone 3A3) VH: EVQLVESGGGVVQPGRSLRLSCAASGFTFSSYGMHWVRQAPGKGLEWVAVISYDGSNKYYADSVKGRFTISRDNSKNTLYLQMNSLRAEDTAVYYCAKDLDYSLWFDPWGQGTLVTVSS VL: DVVMTQSPLSLPVTPGEPASISCRSSQSLLQSNGYNYVEWFLQKPGQSPQLLIYLGSYRASGVPDRFSGSGSGTDFTLKISRVEAEDVGVYYCMQGTHWPLFTFGPGTKVDIK | ~36 | – | – | – |
| anti-ROR1 monoclonal antibody 3A3 (antibody, V domains shown, Intact human IgG1 kappa (Fd of the Fab fused to human IgG1 Fc), about 150 kDa non-reduced; also called 3A3 mAb; 3A3 Mab) VH: EVQLVESGGGVVQPGRSLRLSCAASGFTFSSYGMHWVRQAPGKGLEWVAVISYDGSNKYYADSVKGRFTISRDNSKNTLYLQMNSLRAEDTAVYYCAKDLDYSLWFDPWGQGTLVTVSS VL: DVVMTQSPLSLPVTPGEPASISCRSSQSLLQSNGYNYVEWFLQKPGQSPQLLIYLGSYRASGVPDRFSGSGSGTDFTLKISRVEAEDVGVYYCMQGTHWPLFTFGPGTKVDIKR | – | 0.18 | – | 3.1 |
